Legend:
B8_BP_dslf = target: T1, B8_BP_dslf; assay: BLI; Octet RED96; His-tagged and Avi-tagged minibinders immobilised on Ni-NTA and streptavidin sensor tips, dipped into wells with different concentrations of integrin; association 900 s, dissociation 1200 s; details: both partners purified
T1 construct: de novo designed RGD miniprotein with redesigned, extended β-loop and the motif MAVY in place of LXX(L/I); For BLI His-tagged (Ni-NTA tips) or N-terminally Avi-tagged, biotinylated (streptavidin tips); The methods of model building name a design model 'B8_BP2_dslf'; also called MAVY; source: E. coli BL21(DE3*), purified (Ni-NTA, SEC); not shown: His tag, C-terminal, kept

B8_BP-LATY = target: T2, B8_BP-LATY; assay: as above; details: both partners purified
T2 construct: positions 13-16 worked out from the printed Y16; source: E. coli BL21(DE3*), purified (Ni-NTA, SEC); not shown: His tag, C-terminal, kept
T2 sequence (main, as listed by the source): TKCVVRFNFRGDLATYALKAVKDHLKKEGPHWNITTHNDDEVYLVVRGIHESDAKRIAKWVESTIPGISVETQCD

B1: human integrin αvβ8 (soluble, construct not stated) (complex)
chain 1: FNLDVDSPAEYSGPEGSYFGFAVDFFVPSASSRMFLLVGAPKANTTQPGIVEGGQVLKCDWSSTRRCQPIEFDATGNRDYAKDDPLEFKSHQWFGASVRSKQDKILACAPLYHWRTEMKQEREPVGTCFLQDGTKTVEYAPCRSQDIDADGQGFCQGGFSIDFTKADRVLLGGPGSFYWQGQLISDQVAEIVSKYDPNVYSIKYNNQLATRTAQAIFDDSYLGYSVAVGDFNGDGIDDFVSGVPRAARTLGMVYIYDGKNMSSLYNFTGEQMAAYFGFSVAATDINGDDYADVFIGAPLFMDRGSDGKLQEVGQVSVSLQRASGDFQTTKLNGFEVFARFGSAIAPLGDLDQDGFNDIAIAAPYGGEDKKGIVYIFNGRSTGLNAVPSQILEGQWAARSGCPPSFGYSMKGATDIDKNGYPDLIVGAFGVDRAILYRARPVITVNAGLEVYPSILNQDNKTCSLPGTALKVSCFNVRFCLKADGKGVLPRKLNFQVELLLDKLKQKGAIRRALFLYSRSPSHSKNMTISRGGLMQCEELIAYLRDESEFRDKLTPITIFMEYRLDYRTAADTTGLQPILNQFTPANISRQAHILL
chain 2: EDNRCASSNAASCARCLALGPECGWCVQEDFISGGSRSERCDIVSNLISKGCSVDSIEYPSVHVIIPTENEINTQVTPGEVSIQLRPGAEANFMLKVHPLKKYPVDLYYLVDVSASMHNNIEKLNSVGNDLSRKMAFFSRDFRLGFGSYVDKTVSPYISIHPERIHNQCSDYNLDCMPPHGYIHVLSLTENITEFEKAVHRQKISGNIDTPEGGFDAMLQAAVCESHIGWRKEAKRLLLVMTDQTSHLALDSKLAGIVCPNDGNCHLKNNVYVKSTTMEHPSLGQLSEKLIDNNINVIFAVQGKQFHWYKDLLPLLPGTIAGEIESKAANLNNLVVEAYQKLISEVKVQVENQVQGIYFNITAICPDGSRKPGMEGCRNVTSNDEVLFNVTVTMKKCDVTGGKNYAIIKPIGFNETAKIHI
- Kd (B8_BP_dslf): 1.9 nM
- Kd (B8_BP-LATY): 0.5 nM

— article PMC10500007, “De novo design of highly selective miniprotein inhibitors of integrins αvβ6 and αvβ8” (Nature Communications, 2023)
